B1: Ferredoxin isolated from Clostridium pasteurianum (natural protein)
chain: MAYKIADSCVSCGACASECPVNAISQGDSIFVIDADTCIDCGNCANVCPVGAPVQE

Tests used:
[1] = molecular target: Pyruvate:ferredoxin oxidoreductase PFOR1 of Thermoanaerobacter kivui (Thermoanaerobacter kivui); assay: SEC; analytical size exclusion chromatography on a calibrated Superdex 200 column, buffer E (50 mM Tris/HCl, 150 mM NaCl, 20 mM MgSO4, 2 mM DTE, 4 µM resazurin, 20% glycerol, pH 7.5), size standards ovalbumin, albumin, catalase, ferritin
[2] = molecular target: Pyruvate:ferredoxin oxidoreductase PFOR1 of Thermoanaerobacter kivui (Thermoanaerobacter kivui)

Molecule	stoichiometry N [1]	Km for Fd of the pyruvate-dependent Fd reduction by purified PFOR1 (enzyme activity, 66 °C, pH 7.5, Fd 0-50 µM) [2]
Pyruvate:ferredoxin oxidoreductase PFOR1 of Thermoanaerobacter kivui (enzyme)	2	–
B1	–	19.1 µM

From article PMC8091585
